Measured values from paper PMC8715211.

Biological target: HIV-1 matrix MA1-131 (HIV-1, UniProt C1JB69 2-132)
Assay: ITC

B1: human tRNALys3, in vitro transcribed (structured_RNA)
RNA: GCCCGGAUAGCUCAGUCGGUAGAGCAUCAGACUUUUAAUCUGAGGGUCCAGGGUUCAAGUCCCUGUUCGGGCGCCA
modifications: unmodified transcript
Kd: 270 ± 20 nM
